Experimental data published in patent US11981935B2, “7β-hydroxysteroid dehydrogenase mutants and process for the preparation of ursodeoxycholic acid” (PharmaZell GmbH, priority 2010, dated 2024).
Changes are numbered by the printed parent chain. Names may count otherwise. “Also recorded” adds a separate entry of the source.

How the values were obtained:
[1] = biological target: 7β-HSDH from Collinsella aerofaciens DSM 3979 (Collinsella aerofaciens, UniProt A4ECA9); type: biochemical
7β-HSDH = 7β-HSDH (Collinsella aerofaciens, UniProt A4ECA9); experiment: Photometric identification of 7β-HSDH activity (production example 1); type: biochemical, Collinsella aerofaciens ATCC 25986; conditions: 0.1 mM test substance, potassium phosphate buffer 50 mM pH 8, in the presence of NADP+ or NADPH
Method: For identification of 7β-HSDH activity, the activity was investigated by a photometric method. In a 1 ml cuvette, enzyme and 0.1 mM of test substance (UDCA) were mixed in potassium phosphate buffer (50 mM, pH8).

[2] = Kinetic constants of FDH (mutant D221G) at pH 6, 7 and 8; type: biochemical, Mycobacterium vaccae
[3] = substrate: NC(=O)C1=CN([C@@H]2O[C@H](COP(=O)(O)OP(=O)(O)OC[C@H]3O[C@@H](n4cnc5c(N)ncnc54)[C@H](OP(=O)(O)O)[C@@H]3O)[C@@H](O)[C@H]2O)C=CC1; experiment: purified protein, by the assay type; conditions: other: pH 8, 25° C.
[4] = substrate: NC(=O)c1ccc[n+]([C@@H]2O[C@H](COP(=O)([O-])OP(=O)(O)OC[C@H]3O[C@@H](n4cnc5c(N)ncnc54)[C@H](OP(=O)(O)O)[C@@H]3O)[C@@H](O)[C@H]2O)c1; experiment: purified protein, by the assay type; conditions: other: pH 8, 25° C.
[5] = Photometric activity of 7β-HSDH variants with NADPH or NADH (production example 7); type: biochemical, Collinsella aerofaciens; conditions: for Specific activity NADH / Volumetric activity NADH: cofactor NADH; for Specific activity NADPH / Volumetric activity NADPH: cofactor NADPH
[6] = substrate: C[C@H](CCC(=O)O)[C@H]1CC[C@H]2[C@@H]3C(=O)C[C@@H]4CC(=O)CC[C@]4(C)[C@H]3CC(=O)[C@]12C; experiment: Enzyme-kinetic investigation of the 7β-HSDH mutants; type: biochemical, Collinsella aerofaciens; conditions: other: 0.5 mM NADH
Text: Altogether, the 7β-HSDH mutants G39D, G39D/R40L, G39D/R40I and G39D/R40V were produced. The G39D mutant is produced by Quickchange mutagenesis, and the other mutants are produced by the PCR method of Sanchis et al. (Sanchis J, Fernández L, Carballeira J D, Drone J, Gumulya Y, Höbenreich H, Kahakeaw D, Kille S, Lohmer R, Peyralans J J, Podtetenieff J, Prasad S, Soni P, Taglieber A, Wu S, Zilly F E, Reetz M T. Improved PCR method for the creation of saturation mutagenesis libraries in directed evolution: application to difficult-to-amplify templates. Appl Microbiol Biotechnol. 2008 November; 81(2): 387-97). The following primers were used for the mutagenesis, with the bases shown in italics coding in each case for the exchanged amino acid:
The mutants prepared are evaluated by means of enzyme-kinetic investigations, the results of which are shown as graphs in FIG. 11. […] The need to increase the cofactor concentration in the enzyme-kinetic investigation of the 7β-HSDH mutants is due to the increased semisaturation concentrations for the cofactor NADH in the mutants. From the plots of substrate concentration versus specific enzyme activity, the characteristic curves of Michaelis-Menten kinetics can be seen for the 7β-HSDH mutants, whereas the curve of Michaelis-Menten kinetics with substrate inhibition can be seen from the plot for the unmodified wild-type 7β-HSDH. Accordingly, the classical Michaelis-Menten model (equation 1) was used for evaluating the measurement series of the 7β-HSDH mutants and the Michaelis-Menten model with substrate inhibition was used for the measurement series of the unmodified wild-type 7β-HSDH (equation 2).
[formula] • EAx: specific enzyme activity, U mg^−1=μmol min^−1 mg^−1 • vmax: maximum specific enzyme activity, U mg^−1=μmol min^−1 mg^−1 • cS: substrate or cofactor concentration, mol L^−1 • Km: semisaturation concentration, mol L^−1
The following table gives enzyme-kinetic parameters of the unmodified wild-type 7β-HSDH and the mutants thereof with altered cofactor specificity. NADPH is used as cofactor for the wild type, whereas NADH is used as cofactor for the mutants.

NC(=O)C1=CN([C@@H]2O[C@H](COP(=O)(O)OP(=O)(O)OC[C@H]3O[C@@H](n4cnc5c(N)ncnc54)[C@H](OP(=O)(O)O)[C@@H]3O)[C@@H](O)[C@H]2O)C=CC1 [NADPH]
kcat [1]: 1033.44 1 μmol/(μmol × min)

C[C@H](CCC(=O)O)[C@H]1CC[C@H]2[C@@H]3[C@@H](O)C[C@@H]4C[C@H](O)CC[C@]4(C)[C@H]3CC[C@]12C [UDCA, Ursodeoxycholic acid]
activity of 7β-HSDH against the test substance (7β-HSDH): 60 U/ml
Vmax [1]: 38.17 U/mg protein
kcat [1]: 1179.39 1 μmol/(μmol × min)

C[C@H](CCC(=O)O)[C@H]1CC[C@H]2[C@@H]3C(=O)C[C@@H]4C[C@H](O)CC[C@]4(C)[C@H]3CC[C@]12C [7-Keto-LCA, 7-Keto-lithocholic acid]
activity of 7β-HSDH against the test substance (7β-HSDH): 35 U/ml

C[C@H](CCC(=O)O)[C@H]1CC[C@H]2[C@@H]3[C@H](O)C[C@@H]4C[C@H](O)CC[C@]4(C)[C@H]3C[C@H](O)[C@]12C [CA, Cholic acid]
activity of 7β-HSDH against the test substance (7β-HSDH): no activity; also recorded: not detectable

NC(=O)c1ccc[n+]([C@@H]2O[C@H](COP(=O)([O-])OP(=O)(O)OC[C@H]3O[C@@H](n4cnc5c(N)ncnc54)[C@H](OP(=O)(O)O)[C@@H]3O)[C@@H](O)[C@H]2O)c1 [NADP^+]
kcat [1]: 944.95 1 μmol/(μmol × min)
Km ([1]; pH 8): 5.32 µM

B1: FDH: formate dehydrogenase from Mycobacterium vaccae N10, mutant D221G, utilizes both NAD+ and NADP+ (protein)
chain: MAKVLCVLYDDPVDGYPKTYARDDLPKIDHYPGGQILPTPKAIDFTPGQLLGSVSGELGLREYLESNGHTLVVTSDKDGPDSVFERELVDADVVISQPFWPAYLTPERIAKAKNLKLALTAGIGSDHVDLQSAIDRNVTVAEVTYCNSISVAEHVVMMILSLVRNYLPSHEWARKGGWNIADCVSHAYDLEAMHVGTVAAGRIGLAVLRRLAPFDVHLHYTGRHRLPESVEKELNLTWHATREDMYPVCDVVTLNCPLHPETEHMINDETLKLFKRGAYIVNTARGKLCDRDAVARALESGRLAGYAGDVWFPQPAPKDHPWRTMPYNGMTPHISGTTLTAQARYAAGTREILECFFEGRPIRDEYLIVQGGALAGTGAHSYSKGNATGGSEEAAKFKKAV
modifications: CDS (1)..(1203)
Specific activity ([2]; pH 6, NAD+): 4.6 U × mg^−1
Specific activity ([2]; pH 6, NADP+): 1 U × mg^−1
Specific activity ([2]; pH 7, NAD+): 5.1 U × mg^−1
Specific activity ([2]; pH 7, NADP+): 1.2 U × mg^−1
Specific activity ([2]; pH 8, NAD+): 4.7 U × mg^−1
Specific activity ([2]; pH 8, NADP+): 1 U × mg^−1

B2: 7β-HSDH from Collinsella aerofaciens DSM 3979 (ATCC 25986), wild type, SEQ ID NO:2 (Collinsella aerofaciens ATCC 25986) (protein)
chain: MNLREKYGEWGLILGATEGVGKAFCEKIAAGGMNVVMVGRREEKLNVLAGEIRETYGVETKVVRADFSQPGAAETVFAATEGLDMGFMSYVACLHSFGKIQDTPWEKHEAMINVNVVTFLKCFHHYMRIFAAQDRGAVINVSSMTGISSSPWNGQYGAGKAFILKMTEAVACECEGTGVDVEVITLGTTLTPSLLSNLPGGPQGEAVMKIALTPEECVDEAFEKLGKELSVIAGQRNKDSVHDWKANHTEDEYIRYMGSFYRD
Km [3]: 4.50 µM
Vmax [3]: 33.4 µmol/min/mg
kcat [3]: 1033.44 μmol/(μmol × min)
Km [4]: 5.32 µM
Vmax [4]: 30.6 µmol/min/mg
kcat [4]: 944.95 μmol/(μmol × min)

B3: Collinsella aerofaciens 7β-HSDH mutant G39D, SEQ ID NO:37 (parent SEQ ID NO:2) (Collinsella aerofaciens ATCC 25986; G39D) (protein)
chain: B2 chain with G39D
notes: made in house
Specific activity NADH [5]: 0.1 U/mg
Volumetric activity NADH [5]: 2 U/ml
Specific activity NADPH [5]: 5.1 U/mg
Volumetric activity NADPH [5]: 119 U/ml
Km [6]: 660 ± 120 µM
Vmax [6]: 2.9 µmol/min/mg

B4: G39D R40I: 7β-HSDH double mutant G39D/R40I, SEQ ID NO:39 (protein)
chain: B2 chain with G39D, R40I
Specific activity NADH [5]: 0.8 U/mg
Volumetric activity NADH [5]: 21 U/ml
Specific activity NADPH [5]: 0 U/mg
Volumetric activity NADPH [5]: 0 U/ml

B5: Collinsella aerofaciens 7β-HSDH mutant G39D R40V, SEQ ID NO:40 (parent SEQ ID NO:2) (Collinsella aerofaciens ATCC 25986; G39D/R40V) (protein)
chain: B2 chain with G39D, R40V
notes: made in house
Km [6]: 880 ± 20 µM
Vmax [6]: 2.69 µmol/min/mg

B6: Collinsella aerofaciens 7β-HSDH mutant G39D R40I, SEQ ID NO:39 (parent SEQ ID NO:2) (Collinsella aerofaciens ATCC 25986; G39D/R40I) (protein)
chain: B2 chain with G39D, R40I
notes: made in house
Km [6]: 920 ± 170 µM
Vmax [6]: 4.64 µmol/min/mg

B7: Collinsella aerofaciens 7β-HSDH mutant G39D R40L, SEQ ID NO:38 (parent SEQ ID NO:2) (Collinsella aerofaciens ATCC 25986; G39D/R40L) (protein)
chain: B2 chain with G39D, R40L
notes: made in house
Km [6]: 560 ± 80 µM
Vmax [6]: 1.6 µmol/min/mg
